# Molecular target: T1, LRP6 G171V (human, UniProt O75197 32-1384, limits assumed)
# T1 construct: The parent protein is printed inconsistently (LRP6 in the legend, LRP5 in the text); also called Human HBM G171V mutation; LRP5, G171V
# T1 sequence (looked up): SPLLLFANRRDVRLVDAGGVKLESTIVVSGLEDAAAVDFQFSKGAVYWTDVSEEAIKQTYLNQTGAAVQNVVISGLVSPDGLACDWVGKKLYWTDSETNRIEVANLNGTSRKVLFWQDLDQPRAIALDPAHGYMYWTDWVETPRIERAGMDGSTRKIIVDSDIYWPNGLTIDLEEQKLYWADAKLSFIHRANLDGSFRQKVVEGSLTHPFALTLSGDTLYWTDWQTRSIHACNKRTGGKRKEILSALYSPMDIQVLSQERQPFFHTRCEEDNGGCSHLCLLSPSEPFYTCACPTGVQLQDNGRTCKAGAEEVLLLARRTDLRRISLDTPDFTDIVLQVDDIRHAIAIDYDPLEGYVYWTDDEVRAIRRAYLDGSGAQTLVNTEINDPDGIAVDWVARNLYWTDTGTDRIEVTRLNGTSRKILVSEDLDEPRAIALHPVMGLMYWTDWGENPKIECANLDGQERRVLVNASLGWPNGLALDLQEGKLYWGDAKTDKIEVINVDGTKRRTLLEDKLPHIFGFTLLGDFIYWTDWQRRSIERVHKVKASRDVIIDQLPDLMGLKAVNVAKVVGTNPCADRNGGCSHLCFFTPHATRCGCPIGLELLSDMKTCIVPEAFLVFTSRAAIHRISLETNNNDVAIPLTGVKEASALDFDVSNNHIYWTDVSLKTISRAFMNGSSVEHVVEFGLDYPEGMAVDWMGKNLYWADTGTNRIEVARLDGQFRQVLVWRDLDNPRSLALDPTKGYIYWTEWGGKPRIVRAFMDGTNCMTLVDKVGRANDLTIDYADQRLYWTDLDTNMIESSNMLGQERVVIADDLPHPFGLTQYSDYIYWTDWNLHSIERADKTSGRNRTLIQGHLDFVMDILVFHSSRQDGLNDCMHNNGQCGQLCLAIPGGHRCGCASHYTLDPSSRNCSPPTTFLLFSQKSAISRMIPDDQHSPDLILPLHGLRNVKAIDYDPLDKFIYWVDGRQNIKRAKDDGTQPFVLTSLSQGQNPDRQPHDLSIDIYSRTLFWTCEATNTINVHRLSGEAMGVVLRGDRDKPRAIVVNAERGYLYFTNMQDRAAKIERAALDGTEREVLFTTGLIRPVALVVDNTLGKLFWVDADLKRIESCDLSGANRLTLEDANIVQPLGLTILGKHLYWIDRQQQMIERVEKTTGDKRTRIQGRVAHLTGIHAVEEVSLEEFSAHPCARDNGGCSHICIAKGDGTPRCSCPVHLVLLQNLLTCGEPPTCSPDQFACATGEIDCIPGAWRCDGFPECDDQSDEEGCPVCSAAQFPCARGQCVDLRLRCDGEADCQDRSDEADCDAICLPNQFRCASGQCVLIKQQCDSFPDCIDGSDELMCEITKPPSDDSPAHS
# Test: immunoprecipitation, anti-Flag M2 affinity gel (FIG. 2H)
# Experimental: A […] dish of 293 cells was transfected with 10 ug of LRP5, LRP6, SOST or Wise, using Fugene 6 (Roche). pCS2+LRP5 contains the extracellular portion of the human sequence between EcoRI-Xbal. pCS2+SOST contain the whole reading frame and has been modified at the 3′ end to have a kozak sequence and Flag tag, Wise-Flag, and LRP6-IgG-FC are described in Itasaki et al. (2003). pCS2+ with an Ig-FC insert is the vector control. The supernatants were collected on day 1, day 2, and day 3. The supernatant was concentrated through an appropriate molecular weight Amicon ultra (Millipore) spin column. A protein concentration was taken on the concentrated supernatants, and 50 ug of each sample was used in each IP. Anti-Flag M2 affinity gel (Sigma) was used for the Wise and SOSTIPs.
binder,measurement,value
"SOST-Flag (ligand, mouse, UniProt Q99P68 24-211, looked up, mature; This entry was not used because neither its species nor its tie to the assay construct is stated; also called pCS2+SOST; not shown: Flag tag at the 3' end of the reading frame) QGWQAFRNDATEVIPGLGEYPEPPPENNQTMNRAENGGRPPHHPYDAKDVSEYSCRELHYTRFLTDGPCRSAKPVTELVCSGQCGPARLLPNAIGRVKWWRPNGPDFRCIPDRYRAQRVQLLCPGGAAPRSRKVRLVASCKCKRLTRFHNQSELKDFGPETARPQKGRKPRPGARGAKANQAELENAY",binding result,no binding
